In article PMC10803776, “Structure of the M. tuberculosis DnaK−GrpE complex reveals how key DnaK roles are controlled” (Nature Communications, 2024):

Assays:
[1] = molecular target: the molecule itself; assay: SEC
[2] = molecular target: T1, Mycobacterium tuberculosis DnaK, full length, wild type (Mycobacterium tuberculosis, UniProt P9WMJ9 1-625); assay: ITC; as a1, with 2 mM ADP added to both the DnaK and the GrpE solution; conditions: both partners purified
T1 construct: DnaK (Hsp70 chaperone) of Mycobacterium tuberculosis, full length; also called Mtb DnaK; WT DnaK

[3] = molecular target: T1, Mycobacterium tuberculosis DnaK, full …; assay: ITC; as a1, with 2 mM ATP added to both the DnaK and the GrpE solution; conditions: both partners purified

B1: Mycobacterium tuberculosis GrpE, full length, wild type (natural protein)
chain: MTDGNQKPDGNSGEQVTVTDKRRIDPETGEVRHVPPGDMPGGTAAADAAHTEDKVAELTADLQRVQADFANYRKRALRDQQAAADRAKASVVSQLLGVLDDLERARKHGDLESGPLKSVADKLDSALTGLGLVAFGAEGEDFDPVLHEAVQHEGDGGQGSKPVIGTVMRQGYQLGEQVLRHALVGVVDTVVVDAAELESVDDGTAVADTAENDQADQGNSADTSGEQAESEPSGS
notes: GrpE (nucleotide exchange factor) of Mycobacterium tuberculosis, full length; also called Mtb GrpE; WT GrpE
stoichiometry N [1]: 2
Kd [2]: 1.79 µM
stoichiometry N [2]: 0.69
Kd [3]: 20.7 µM
stoichiometry N [3]: 0.07
